Experimental data reported in publication PMC12102760 (Protein Science : A Publication of the Protein Society, 2025).

How the values were obtained:
[1] = molecular target: T1, EphA2 extracellular domain (ECD) (human, UniProt P29317); experiment: SPR; EphA2 ECD immobilised by amine coupling on GLC chip, Fabs from 100 nM in three-fold dilutions, PBS, 25°C, 1:1 Langmuir model; settings: both partners purified
T1 construct: EphA2, human, extracellular domain (LBD, CRD, FN1, FN2); The catalogue number is printed for the SEC and the selections; also called EphA2 ECD; EphA2-His; source: bought: R&D Systems (3035-A2)
T1 sequence (P29317 24-537): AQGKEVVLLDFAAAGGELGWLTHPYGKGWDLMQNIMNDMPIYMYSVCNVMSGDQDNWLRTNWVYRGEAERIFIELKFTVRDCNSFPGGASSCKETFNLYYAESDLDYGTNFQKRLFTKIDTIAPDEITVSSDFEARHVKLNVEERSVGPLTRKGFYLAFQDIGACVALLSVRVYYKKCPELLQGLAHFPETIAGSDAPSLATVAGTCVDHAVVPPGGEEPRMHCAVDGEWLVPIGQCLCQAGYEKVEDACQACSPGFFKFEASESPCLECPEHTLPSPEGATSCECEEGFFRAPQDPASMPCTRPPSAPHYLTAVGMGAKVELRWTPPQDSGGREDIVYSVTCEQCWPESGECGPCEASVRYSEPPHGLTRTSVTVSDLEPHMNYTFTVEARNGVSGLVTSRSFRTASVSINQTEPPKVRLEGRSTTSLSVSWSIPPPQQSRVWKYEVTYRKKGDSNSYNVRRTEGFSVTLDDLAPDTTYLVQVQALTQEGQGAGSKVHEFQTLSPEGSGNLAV

EphA2-Fc = molecular target: T2, EphA2-Fc (Homo sapiens, UniProt P29317); experiment: BLI; IgG captured on anti-human biosensors, quenched with Fc; receptor ECD-Fc in solution, three-fold dilutions from 300 nM; PBS, 1% BSA, 0.05% Tween 20; 25°C; 1:1 binding model; settings: both partners purified
T2 construct: EphA2, human, extracellular domain; Eph ECDs used for the phage selections were from R&D; also called EphA2 ECD
T2 sequence (P29317 24-537): as above

EphA4-Fc = molecular target: T3, EphA4-Fc (Homo sapiens, UniProt P54764); experiment: as above; settings: both partners purified
T3 construct: EphA4, human, extracellular domain
T3 sequence (P54764 20-547): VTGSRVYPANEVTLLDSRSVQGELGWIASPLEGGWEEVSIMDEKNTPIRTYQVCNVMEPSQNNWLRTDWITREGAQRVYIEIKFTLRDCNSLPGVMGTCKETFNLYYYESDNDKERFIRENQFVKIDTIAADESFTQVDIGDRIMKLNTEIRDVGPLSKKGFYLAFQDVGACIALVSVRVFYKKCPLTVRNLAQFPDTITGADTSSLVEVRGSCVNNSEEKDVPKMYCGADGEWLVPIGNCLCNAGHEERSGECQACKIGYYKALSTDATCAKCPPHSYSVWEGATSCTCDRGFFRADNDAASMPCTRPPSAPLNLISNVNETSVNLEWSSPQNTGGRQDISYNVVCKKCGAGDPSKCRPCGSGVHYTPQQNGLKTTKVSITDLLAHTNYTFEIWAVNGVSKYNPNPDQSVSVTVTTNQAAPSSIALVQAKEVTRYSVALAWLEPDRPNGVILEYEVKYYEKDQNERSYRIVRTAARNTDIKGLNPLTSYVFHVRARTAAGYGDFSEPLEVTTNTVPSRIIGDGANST

EphA8-Fc = molecular target: T4, EphA8-Fc (Homo sapiens, UniProt P29322); experiment: as above; settings: both partners purified
T4 construct: EphA8, human, extracellular domain
T4 sequence (P29322 28-542): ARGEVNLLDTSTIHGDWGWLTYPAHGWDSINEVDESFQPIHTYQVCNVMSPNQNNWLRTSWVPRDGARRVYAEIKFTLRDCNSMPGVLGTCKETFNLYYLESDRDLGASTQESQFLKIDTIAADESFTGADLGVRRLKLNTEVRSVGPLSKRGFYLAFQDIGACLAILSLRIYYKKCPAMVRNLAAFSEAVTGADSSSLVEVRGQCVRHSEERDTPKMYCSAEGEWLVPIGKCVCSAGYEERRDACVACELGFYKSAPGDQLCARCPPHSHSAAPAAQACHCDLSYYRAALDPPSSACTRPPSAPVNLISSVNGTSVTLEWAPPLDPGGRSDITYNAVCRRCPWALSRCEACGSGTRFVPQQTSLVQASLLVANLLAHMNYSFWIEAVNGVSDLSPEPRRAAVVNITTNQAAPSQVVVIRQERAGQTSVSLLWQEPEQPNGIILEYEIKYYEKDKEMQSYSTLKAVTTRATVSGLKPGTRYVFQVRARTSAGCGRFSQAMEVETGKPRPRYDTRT

[2] = molecular target: the molecule itself; experiment: crystal structure; Fab^S1CEL1 with EphA2 LBD-CRD, 4.6 Å; 16% PEG 8000, 100 mM CHES pH 9.0, 200 mM magnesium sulfate; one Fab and two LBD-CRD in the asymmetric unit

B1: Fab F1 (Fab, V domains shown)
VH: EVQLVESGGGLVQPGGSLRLSCAASGFDSGAYLRHWVRQAPGKGLEWVASIYPSYGYTSYADSVKGRFTISADTSKNTAYLQMNSLRAEDTAVYYCARSAASYYGYWHWYHFSPGMDYWGQGTLVTVSS
VL: DIQMTQSPSSLSASVGDRVTITCRASQSVSSAVAWYQQKPGKAPKLLIYSASDLYSGVPSRFSGSRSGTDFTLTISSLQPEDFATYYCQQYVSGGWLITFGQGTKVEIK
notes: Fab^S1F1 in PDB 8T7F (chains C and G, heavy and light chain); Optimised from the parental Fab F1′ (Enderle et al., 2021); The deposited chains carry framework substitutions that this Fab lacks; source: E. coli BL21, purified (Protein A)
- Kd [1]: < 1 nM

B2: IgG L1 (antibody, V domains shown)
VH: EVQLVESGGGLVQPGGSLRLSCAASGFTISSSYIHWVRQAPGKGLEWVASISSYYGSTSYADSVKGRFTISADTSKNTAYLQMNSLRAEDTAVYYCARSHYSVWWGWHSVSYYAAFDYWGQGTLVTVSS
VL: DIQMTQSPSSLSASVGDRVTITCRASQSVSSAVAWYQQKPGKAPKLLIYSASSLYSGVPSRFSGSRSGTDFTLTISSLQPEDFATYYCQQGSAPFTFGQGTKVEIK
notes: full-length IgG constant region not specified; as the light chain of m12; Bivalent full-length IgG; also called L1 IgG; Ab L1; source: mammalian cells, purified; copies: 2 + 2
- Kd (EphA2-Fc): 0.27 nM
- binding result (EphA4-Fc): no binding (tested: 300 nM)
- binding result (EphA8-Fc): no binding (tested: 300 nM)

B3: Fab L1 (Fab, V domains shown)
VH: EVQLVESGGGLVQPGGSLRLSCAASGFTISSSYIHWVRQAPGKGLEWVASISSYYGSTSYADSVKGRFTISADTSKNTAYLQMNSLRAEDTAVYYCARSHYSVWWGWHSVSYYAAFDYWGQGTLVTVSS
VL: DIQMTQSPSSLSASVGDRVTITCRASQSVSSAVAWYQQKPGKAPKLLIYSASSLYSGVPSRFSGSRSGTDFTLTISSLQPEDFATYYCQQGSAPFTFGQGTKVEIK
notes: synthetic Fab from phage library F; The deposited chains carry crystallisation-enhancing framework substitutions that this Fab lacks; source: E. coli BL21, purified (Protein A)
- Kd [1]: < 1 nM

B4: Fab C1 (Fab, V domains shown)
VH: EVQLVESGGGLVQPGGSLRLSCAASGFTIYYSSMHWVRQAPGKGLEWVASISSYYGYTYYADSVKGRFTISADTSKNTAYLQMNSLRAEDTAVYYCARYYAMDYWGQGTLVTVSS
VL: DIQMTQSPSSLSASVGDRVTITCRASQSVSSAVAWYQQKPGKAPKLLIYSASSLYSGVPSRFSGSRSGTDFTLTISSLQPEDFATYYCQQYYGYGGYPITFGQGTKVEIK
notes: as for B3
- Kd [1]: < 1 nM

B5: EphA2 LBD-CRD (residues 23-326) (domain or fragment, human, UniProt P29317 23-326, looked up)
chain: AAQGKEVVLLDFAAAGGELGWLTHPYGKGWDLMQNIMNDMPIYMYSVCNVMSGDQDNWLRTNWVYRGEAERIFIELKFTVRDCNSFPGGASSCKETFNLYYAESDLDYGTNFQKRLFTKIDTIAPDEITVSSDFEARHVKLNVEERSVGPLTRKGFYLAFQDIGACVALLSVRVYYKKCPELLQGLAHFPETIAGSDAPSLATVAGTCVDHAVVPPGGEEPRMHCAVDGEWLVPIGQCLCQAGYEKVEDACQACSPGFFKFEASESPCLECPEHTLPSPEGATSCECEEGFFRAPQDPASMPCT
notes: EphA2, human, LBD-CRD, residues 23-326; A thrombin cleavage site precedes the C-terminal hexahistidine tag; also called LBD-CRD1; LBD-CRD2; source: kifunensine culture, deglycosylated by endoH
- binding result [2]: binds
